Target: isolated C-terminal domain of FusB (FusBCTD) (Pectobacterium carotovorum LMG2410)
Test: ITC

Substance “spinach ferredoxin (FerSp) (from UniProt P00221 51-147) (natural protein)” has a Kd of 8.7 µM.

Source: doi:10.1101/749960
